IntAct's records for PubMed 19804755

B1: DNA repair and telomere maintenance protein nbs1 (Schizosaccharomyces pombe (strain ATCC 38366 / 972)), O43070 (parent)
chain: MWIIEAEGDILKGKSRILFPGTYIVGRNVSDDSSHIQVISKSISKRHARFTILTPSEKDYFTGGPCEFEVKDLDTKFGTKVNEKVVGQNGDSYKEKDLKIQLGKCPFTINAYWRSMCIQFDNPEMLSQWASNLNLLGIPTGLRDSDATTHFVMNRQAGSSITVGTMYAFLKKTVIIDDSYLQYLSTVKESVIEDASLMPDALECFKNIIKNNDQFPSSPEDCINSLEGFSCAMLNTSSESHHLLELLGLRISTFMSLGDIDKELISKTDFVVLNNAVYDSEKISFPEGIFCLTIEQLWKIIIERNSRELISKEIERLKYATASNSTPQKIIQPQRHIQKNIVDDLFSVKKPLPCSPKSKRVKTLENLSIMDFVQPKQMFGKEPEGYLSNQSNNGSAQNKKSGDNSEKTKNSLKSSSKKSANTGSGQGKTKVEYVSYNSVDKGNSSPFKPLELNVVGEKKANAEVDSLPSENVQESEDDKAFEENRRLRNLGSVEYIRIMSSEKSNANSRHTSKYYSGRKNFKKFQKKASQKAPLQAFLSLSEHKKTEVFDQDDTDLEPVPRLMSKVESIPAGASSDKSGKSSISKKSSNSFKELSPKTNNDEDDEFNDLKFHF
partner: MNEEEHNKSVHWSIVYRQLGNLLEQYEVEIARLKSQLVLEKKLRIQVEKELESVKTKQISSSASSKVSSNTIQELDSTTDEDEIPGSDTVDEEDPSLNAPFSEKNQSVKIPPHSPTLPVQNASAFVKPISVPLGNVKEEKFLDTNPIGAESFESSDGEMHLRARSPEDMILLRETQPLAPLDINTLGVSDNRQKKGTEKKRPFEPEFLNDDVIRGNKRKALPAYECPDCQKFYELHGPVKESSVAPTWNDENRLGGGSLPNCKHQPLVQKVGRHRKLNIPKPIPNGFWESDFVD

Variants of: B1
Details: with com1_schpo ctp1, O74986

effect of a mutation on the interaction	Variant
decreasing interaction	R27A;K45A
